This is an account of results in article PMC4559223.

The target in data set [1] is T1, GATA3 C-finger (mouse, UniProt P23772 308-370). In words: X-ray crystallography.
In data set [2] the target is T1, GATA3 C-finger. Put plainly: X-ray crystallography. The source holds these as a separate data set.

Like-named read-outs stand apart in the source and are kept apart here.

T1 sequence (P23772 308-370): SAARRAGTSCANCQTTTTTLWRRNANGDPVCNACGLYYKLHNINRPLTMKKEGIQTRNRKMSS

B1: ADJ DNA (crystal) (dsDNA)
DNA 1: TTCTGATAAGACTTATCTGC
DNA 2: AAGCAGATAAGTCTTATCAG
As for B1, the binding result in data set [1] is “binds”.

B2: OPP DNA (crystal) (dsDNA)
DNA 1: TTGATAAATCAGAGATAACC
DNA 2: AAGGTTATCTCTGATTTATC
Take B2: the binding result in data set [2] is listed as “binds”.
